Experimental data published in article PMC4355727.

Target: FLAG-tagged Rab32 T39N (UniProt Q13637)
Experiment: co-IP

Sequence of UniProt Q13637 (Q13637 whole entry T39N): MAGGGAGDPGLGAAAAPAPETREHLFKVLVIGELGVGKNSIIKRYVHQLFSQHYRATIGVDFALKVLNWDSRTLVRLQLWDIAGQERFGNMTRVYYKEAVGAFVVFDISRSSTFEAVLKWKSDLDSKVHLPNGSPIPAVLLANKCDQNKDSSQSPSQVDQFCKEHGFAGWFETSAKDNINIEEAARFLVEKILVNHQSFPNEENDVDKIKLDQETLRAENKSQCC

Question: How did the fraction of the interaction detected with active Rab32 Q85L turn out when HA-tagged Drp1 S656A (natural protein) was run?
Answer: 0.25
